B1: unnamed (protein)
chain: MDGVLWRVRTAALMAALLALAAWALWASPSVEAQSNPYQRGPNPTRSALTADGPFSVATYTVSRLSVSGFGGVIYYPTGTSLTFGGIAMSPGYTADASSLAWLGRRLASHGFVVLVINTNSRFDYPDSRASQLSAALNYLRTSSPSAVRARLDANRLAVAGHSMGGGGTLRIAEQNPSLKAAVPLTPWHTDKTFNTSVPVLIVGCEADTVAPVSQHAIPFYQNLPSTTPKVYVELDNASHFCPNSNNAAISVYTISWMKLWVDNDTRYRQFLCNVNDPALSDFRTNNRHCQCQ
B2: unnamed (protein)
chain: MDGVLWRVRTAALMAALLALAAWALWASPSVEAQSNPYQRGPNPTRSALTADGPFSVATYTVSRLSVSGFGGVIYYPTGTSLTFGGIAMSPGYTADASSLAWLGRRLASHGFVVLVINTNSRFDYPDSRASQLSAALNYLRTSSPSAVRARLDANRLAVAGWSMGGGGTLRIAEQNPSLKAAVPLTPWHTDKTFNTSVPVLIVGCEADTVAPVSQHAIPFYQNLPSTTPKVYVELDNASHSCPNSNNAAISVYTISWMKLWVDNDTRYRQFLCNVNDPALSDFRTNNRHCQCQ
B3: unnamed (protein)
chain: MDGVLWRVRTAALMAALLALAAWALWASPSVEAQSNPYQRGPNPTRSALTADGPFSVATYTVSRLSVSGFGGVIYYPTGTSLTFGGIAMSPGYTADASSLAWLGRRLASHGFVVLVINTNSRFDYPDSRASQLSAALNYLRTSSPSAVRARLDANRLAVAGHSMGGGGTLRIAEQNPSLKAAVPLTPWHTDKTFNTSVPVLIVGAEADTVAPVSQHAIPFYQNLPSTTPKVYVELDNASHFAPNSNNAAISVYTISWMKLWVDNDTRYRQFLCNVNDPALSDFRTNNRHCQCQ
B4: unnamed (protein)
chain: MDGVLWRVRTAALMAALLALAAWALWASPSVEAQSNPYQRGPNPTRSALTADGPFSVATYTVSRLSVSGFGGVIYYPTGTSLTFGGIAMSPGYTADASSLAWLGRRLASHGFVVLVINTNSRFDYPDSRASQLSAALNYLRTSSPSAVRARLDANRLAVAGWSMGGGGTLRIAEQNPSLKAAVPLTPWHTDKTFNTSVPVLIVGAEADTVAPVSQHAIPFYQNLPSTTPKVYVELDNASHFAPNSNNAAISVYTISWMKLWVDNDTRYRQFLCNVNDPALSDFRTNNRHCQCQ
B5: unnamed (protein)
chain: MDGVLWRVRTAALMAALLALAAWALWASPSVEAQSNPYQRGPNPTRSALTADGPFSVATYTVSRLSVSGFGGVIYYPTGTSLTFGGIAMSPGYTADASSLAWLGRRLASHGFVVLVINTNSRFDYPDSRASQLSAALNYLRTSSPSAVRARLDANRLAVAGWSMGGGGTLRIAEQNPSLKAAVPLTPWHTDKTFNTSVPVLIVGAEADTVAPVSQHAIPFYQNLPSTTPKVYVELDNASHSAPNSNNAAISVYTISWMKLWVDNDTRYRQFLCNVNDPALSDFRTNNRHCQCQ
B6: unnamed (protein)
chain: MDGVLWRVRTAALMAALLALAAWALWASPSVEAQSNPYQRGPNPTRSALTADGPFSVATYTVSRLSVSGFGGVIYYPTGTSLTFGGIAMSPGYTADASSLAWLGRRLASHGFVVLVINTNSRFDYPDSRASQLSAALNYLRTSSPSAVRARLDANRLAVAGHSMGGGGTLRIAEQNPSLKAAVPLTPWHTDKTFNTSVPVLIVGCEADTVAPVSQHAIPFYQNLPSTTPKVYVELDNASHSCPNSNNAAISVYTISWMKLWVDNDTRYRQFLCNVNDPALSDFRTNNRHCQCQ
B7: unnamed (protein)
chain: MDGVLWRVRTAALMAALLALAAWALWASPSVEAQSNPYQRGPNPTRSALTADGPFSVATYTVSRLSVSGFGGVIYYPTGTSLTFGGIAMSPGYTADASSLAWLGRRLASHGFVVLVINTNSRFDYPDSRASQLSAALNYLRTSSPSAVRARLDANRLAVAGHSMGGGGTLRIAEQNPSLKAAVPLTPWHTDKTFNTSVPVLIVGAEADTVAPVSQHAIPFYQNLPSTTPKVYVELDNASHSAPNSNNAAISVYTISWMKLWVDNDTRYRQFLCNVNDPALSDFRTNNRHCQCQ
B8: unnamed (protein)
chain: MNFPRASRLMQAAVLGGLMAVSAAATAQTNPYARGPNPTAASLEASAGPFTVRSFTVSRPSGYGAGTVYYPTNAGGTVGAIAIVPGYTARQSSIKWWGPRLASHGFVVITIDTNSTLDQPSSRSSQQMAALRQVASLNGTSSSPIYGKVDTARMGVMGHSMGGGGSLISAANNPSLKAAAPQAPWDSSTNFSSVTVPTLIFAAENDSIAPVNSSALPIYDSMSRNAKQFLEINGGSHFAANSGNSNQALIGKKGVAWMKRFMDNDTRYSTFACENPNSTRVSDFRTANCS
B9: unnamed (protein)
chain: MNFPRASRLMQAAVLGGLMAVSAAATAQTNPYARGPNPTAASLEASAGPFTVRSFTVSRPSGYGAGTVYYPTNAGGTVGAIAIVPGYTARQSSIKWWGPRLASHGFVVITIDTNSTLDQPSSRSSQQMAALRQVASLNGTSSSPIYGKVDTARMGVMGWSMGGGGSLISAANNPSLKAAAPQAPWDSSTNFSSVTVPTLIFACENDSIAPVNSSALPIYDSMSRNAKQFLEINGGSHFCANSGNSNQALIGKKGVAWMKRFMDNDTRYSTFACENPNSTRVSDFRTANCS
B10: unnamed (protein)
chain: MNFPRASRLMQAAVLGGLMAVSAAATAQTNPYARGPNPTAASLEASAGPFTVRSFTVSRPSGYGAGTVYYPTNAGGTVGAIAIVPGYTARQSSIKWWGPRLASHGFVVITIDTNSTLDQPSSRSSQQMAALRQVASLNGTSSSPIYGKVDTARMGVMGHSMGGGGSLISAANNPSLKAAAPQAPWDSSTNFSSVTVPTLIFACENDSIAPVNSSALPIYDSMSRNAKQFLEINGGSHFCANSGNSNQALIGKKGVAWMKRFMDNDTRYSTFACENPNSTRVSDFRTANCS
B11: unnamed (protein)
chain: MNFPRASRLMQAAVLGGLMAVSAAATAQTNPYARGPNPTAASLEASAGPFTVRSFTVSRPSGYGAGTVYYPTNAGGTVGAIAIVPGYTARQSSIKWWGPRLASHGFVVITIDTNSTLDQPSSRSSQQMAALRQVASLNGTSSSPIYGKVDTARMGVMGHSMGGGGSLISAANNPSLKAAAPQAPWDSSTNFSSVTVPTLIFACENDSIAPVNSSALPIYDSMSRNAKQFLEINGGSHSCANSGNSNQALIGKKGVAWMKRFMDNDTRYSTFACENPNSTRVSDFRTANCS
B12: unnamed (protein)
chain: MNFPRASRLMQAAVLGGLMAVSAAATAQTNPYARGPNPTAASLEASAGPFTVRSFTVSRPSGYGAGTVYYPTNAGGTVGAIAIVPGYTARQSSIKWWGPRLASHGFVVITIDTNSTLDQPSSRSSQQMAALRQVASLNGTSSSPIYGKVDTARMGVMGWSMGGGGSLISAANNPSLKAAAPQAPWDSSTNFSSVTVPTLIFACENDSIAPVNSSALPIYDSMSRNAKQFLEINGGSHSCANSGNSNQALIGKKGVAWMKRFMDNDTRYSTFACENPNSTRVSDFRTANCS
B13: unnamed (protein)
chain: MNFPRASRLMQAAVLGGLMAVSAAATAQTNPYARGPNPTAASLEASAGPFTVRSFTVSRPSGYGAGTVYYPTNAGGTVGAIAIVPGYTARQSSIKWWGPRLASHGFVVITIDTNSTLDQPSSRSSQQMAALRQVASLNGTSSSPIYGKVDTARMGVMGWSMGGGGSLISAANNPSLKAAAPQAPWDSSTNFSSVTVPTLIFAAENDSIAPVNSSALPIYDSMSRNAKQFLEINGGSHSAANSGNSNQALIGKKGVAWMKRFMDNDTRYSTFACENPNSTRVSDFRTANCS

Substrate: PEF
Assay: Proxy for plastic degradation [kcat] (s⁻¹)
Settings: pH 9

Point of comparison: B1, “Proxy for plastic degradation” value 0.004. Against it:
- B2 — higher, 0.006
- B3 — higher, 0.005
- B4 — higher, 0.033
- B5 — higher, 0.0175
- B6 — higher, 0.115
- B7 — higher, 0.085
- B8 — lower, 0
- B9 — higher, 0.35
- B11 — higher, 0.17
- B13 — lower, 0

Substrate: PET
Assay: Proxy for plastic degradation [kcat] (s⁻¹)
Settings: pH 9

Point of comparison: B6, “Proxy for plastic degradation” value 0.03. Against it:
- B1 — lower, 0.0031
- B2 — lower, 0.0045
- B3 — lower, 0.01
- B4 — lower, 0.003
- B5 — lower, 0.018
- B7 — higher, 0.035
- B8 — lower, 0
- B9 — higher, 0.035
- B11 — the same, 0.03
- B13 — lower, 0

Substrate: not listed separately
Assay: Proxy for plastic degradation [melting temperature]
Settings: pH 7

Point of comparison: B7, “Proxy for plastic degradation” value 85 °C. Against it:
- B1 — lower, 82 °C
- B2 — lower, 82.5 °C
- B3 — the same, 85 °C
- B4 — lower, 84.9 °C
- B5 — lower, 84.5 °C
- B6 — lower, 83 °C
- B8 — lower, 39.5 °C
- B9 — lower, 48.5 °C
- B11 — lower, 48 °C
- B13 — lower, 40.4 °C

Substrate: pNPB
Assay: Proxy for plastic degradation [kcat/Km (catalytic efficiency)] (mM⁻¹s⁻¹)
Settings: pH 7

Point of comparison: B7, “Proxy for plastic degradation” value 175. Against it:
- B1 — higher, 335
- B2 — lower, 2.8
- B3 — higher, 398
- B4 — lower, 67
- B5 — lower, 28
- B6 — lower, 125
- B8 — lower, 2.1
- B9 — lower, 3.3
- B11 — lower, 45.8
- B13 — lower, 0

Substrate: pNPB
Assay: Proxy for plastic degradation [PET preference ratio] (% relative activity)
Settings: pH 7

Point of comparison: B13, “Proxy for plastic degradation” value 0. Against it:
- B6 — the same, 0
- B8 — the same, 0

Substrate: PEF
Assay: Proxy for plastic degradation [Released monomer concentration (HPLC/LC-MS) (FDCA + MHEF)] (s⁻¹)
Settings: pH 9

Point of comparison: B8, “Proxy for plastic degradation” value 0. Against it:
- B9 — higher, 0.35
- B11 — higher, 0.2
- B13 — the same, 0

Substrate: PET
Assay: Proxy for plastic degradation [Released monomer concentration (HPLC/LC-MS) (TPA+MHET+BHET)] (s⁻¹)
Settings: pH 9

Point of comparison: B9, “Proxy for plastic degradation” value 0.037. Against it:
- B8 — lower, 0
- B11 — lower, 0.03
- B13 — lower, 0

Substrate: PEF
Assay: Proxy for plastic degradation [kcat] (s⁻¹)
Settings: pH 9; part of the chain shown

Point of comparison: B12, “Proxy for plastic degradation” value 1.02. Against it:
- B10 — lower, 0.08

Substrate: PET
Assay: Proxy for plastic degradation [kcat] (s⁻¹)
Settings: pH 9; part of the chain shown

Point of comparison: B12, “Proxy for plastic degradation” value 0.09. Against it:
- B10 — lower, 0.013

Substrate: not listed separately
Assay: Proxy for plastic degradation [melting temperature]
Settings: pH 7; part of the chain shown

With B10 the “Proxy for plastic degradation” value was 47.9 °C.

Substrate: pNPB
Assay: Proxy for plastic degradation [kcat/Km (catalytic efficiency)] (mM⁻¹s⁻¹)
Settings: pH 7; part of the chain shown

Point of comparison: B10, “Proxy for plastic degradation” value 22.8. Against it:
- B12 — lower, 8.7

Substrate: PEF
Assay: Proxy for plastic degradation [Released monomer concentration (HPLC/LC-MS) (FDCA + MHEF)] (s⁻¹)
Settings: pH 9; part of the chain shown

Point of comparison: B10, “Proxy for plastic degradation” value 0.11. Against it:
- B12 — higher, 1

Substrate: PET
Assay: Proxy for plastic degradation [Released monomer concentration (HPLC/LC-MS) (TPA+MHET+BHET)] (s⁻¹)
Settings: pH 9; part of the chain shown

Point of comparison: B12, “Proxy for plastic degradation” value 0.075. Against it:
- B10 — lower, 0.012

Source: the PETadex activity labels (doi:10.1016/j.ijbiomac.2025.149745)
